We go through 1 molecule from PMC3210382.

In the data set the target is BoNT/A toxoid (formaldehyde-inactivated botulinum neurotoxin type A, 150 kDa) (UniProt P0DPI1 2-1296). The experiment in a line: […].
BoNT/A toxoid (formaldehyde-inactivated botulinum neurotoxin type A, 150 kDa), sequence (P0DPI1 2-1296): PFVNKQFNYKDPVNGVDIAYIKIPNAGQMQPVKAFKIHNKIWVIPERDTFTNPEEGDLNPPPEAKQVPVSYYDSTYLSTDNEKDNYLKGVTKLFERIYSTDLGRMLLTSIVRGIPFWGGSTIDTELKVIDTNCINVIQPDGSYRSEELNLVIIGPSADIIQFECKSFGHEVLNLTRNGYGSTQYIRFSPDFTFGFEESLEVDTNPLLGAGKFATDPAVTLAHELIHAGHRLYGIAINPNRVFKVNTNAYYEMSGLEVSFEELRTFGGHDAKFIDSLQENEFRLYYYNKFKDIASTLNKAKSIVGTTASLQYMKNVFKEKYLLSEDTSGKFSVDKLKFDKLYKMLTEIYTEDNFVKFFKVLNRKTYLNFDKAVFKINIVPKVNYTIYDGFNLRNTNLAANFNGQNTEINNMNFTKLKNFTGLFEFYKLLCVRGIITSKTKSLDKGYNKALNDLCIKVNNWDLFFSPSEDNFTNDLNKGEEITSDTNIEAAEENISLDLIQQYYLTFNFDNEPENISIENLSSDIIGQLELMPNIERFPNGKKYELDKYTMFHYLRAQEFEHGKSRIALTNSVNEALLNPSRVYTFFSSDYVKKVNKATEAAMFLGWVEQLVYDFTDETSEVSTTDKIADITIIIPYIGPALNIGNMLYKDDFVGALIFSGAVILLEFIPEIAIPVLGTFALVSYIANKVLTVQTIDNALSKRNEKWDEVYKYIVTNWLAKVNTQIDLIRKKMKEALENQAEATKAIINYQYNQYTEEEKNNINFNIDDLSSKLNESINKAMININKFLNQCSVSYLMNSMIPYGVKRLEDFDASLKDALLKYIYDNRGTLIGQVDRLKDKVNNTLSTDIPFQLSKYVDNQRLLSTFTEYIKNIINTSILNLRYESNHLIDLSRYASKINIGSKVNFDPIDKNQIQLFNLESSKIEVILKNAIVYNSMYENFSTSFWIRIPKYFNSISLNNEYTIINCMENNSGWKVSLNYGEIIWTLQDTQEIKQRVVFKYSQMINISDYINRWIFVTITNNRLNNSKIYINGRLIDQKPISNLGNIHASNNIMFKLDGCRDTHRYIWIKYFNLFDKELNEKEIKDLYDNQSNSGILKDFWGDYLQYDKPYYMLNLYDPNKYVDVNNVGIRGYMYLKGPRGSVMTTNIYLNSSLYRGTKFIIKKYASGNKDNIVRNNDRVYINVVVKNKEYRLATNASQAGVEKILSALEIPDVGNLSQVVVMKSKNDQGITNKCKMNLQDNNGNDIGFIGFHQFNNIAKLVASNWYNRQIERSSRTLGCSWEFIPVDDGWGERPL

B1: BoNT/A aptamer (76 nt) (ssDNA)
DNA: ATACCAGCTTATTCAATTGACATGACTGGGATTTTTGGCGAAATCGAAGGAAGCGGAGAGATAGTAAGTGCAATCT
Turning to B1, the binding signal is ~3.8 signal-to-background ratio.
